Assay results reported in the DeepSol protein solubility set.

Test: soluble on expression in E. coli; label from the status in PepcDB or PDB records

Sequence | soluble on expression in E. coli
MKTTTYNTDWAAEKTKIRSFFDEYYVDNEDGSGKAFPYRDQVFEIARRDKQAIVVNVDHIKESDIPDALELSEAITSNTKRYEVLFKDTISDMIQDYLGDKQAPVIDALDAYMFQRLHMDRNEGAANEEVSLQDKRKKYPPQLLQRFEVYFTTDDAAHETCVRNIKATEIGHLVSMKGVVIRATEVKPCVEVMTYTCDTCAAEVYQPVKGMQFTPPVNCPNKECVEAKANGRLHMQLRGSKFVKFQELKIQELSEQVPVGSIPRTMTVHVYGEMTRKCNTGNVVHVSGVFLPIMQSGFRPTGGLVADTYLEAHYINNLDDNPTFNGVQSAELEVLRRKGDNYETLAASIAPEIFGHVDVKKCLLMALVGGNDNSSNGMKIRGCINVLMMGDPGVAKSQLLGYVNRLAPRSQYTTGRGSSGVGLTAAVMKDPVTGEMSLEGGALVLADGGICCIDEFDKMMDHDRTAIHEVMEQQTISIAKAGIMTTLNARTAIIAAANPAYGRYNPNRSIEQNVDLPAALLSRFDLILLMQDKADRENDKILAEHITYVHQHGCHPNREKKDLISLETLREYISLCKTYTPTVDPALRERIVEAYVEMRRDARYSSDPTFVSPRMILGIVRMATARAKLRLSTIVDESDVEEALRLMQFAKDSLRPEQNKIEKRMAPVDAAFAVLRELYHADNAPIAISNAIQRCARKGISEVALKKCLDQYTANGLLVMDRQNIVFAMN | not soluble
MKVLAFDTSSKALSLAILEDKQVLAETTINIKKNHSITLMPAIDFLMASLDWTPKDLDRIVVAEGPGSYTGLRIAVATAKTLAHTLNIELVGMSSLLALVPHQQEGLFVPLMDARRNNVYAGFYENAKPVMAEAHLSFEEVLEKVKGTSQVTFVGEVGPFVEQIQKHLPRTDYKETLPNAANLALLAWDKEADSLHDFVPNYLKRVEAEENWLKNHTESGESYIKRL | not soluble
MGSDKIHHHHHHMFYRPEDGHGLPHNPFNAVVTPRPIGWISTRSGAGVNNLAPYSFFNAVAYVPPQVMFASTSTKDDQDGTKDSIANIRETGVFCVNVVEYAMRDAMNKTSAALDKGIDEFAHAGLEAVPCETIDCARVAGVPAALECRLTQIVDLPGEANKVAFGEVVGVHLRDDCLVDGVFDVTRYQPLSRLGYRDYAKVSDPFSLSRPDD | not soluble
MGSDKIHHHHHHMSTARLVLLGGFLGAGKTTTMIKSALKLEKEGYRVAIVTNDQGKELIDTELARANGLESKEVTGGCFCCQFDDLYNNLNTLMKEKQPDVIIAEAVGSCTDLAATVIQPLKQYYADKFKTAPLTIVVEPARLLHELNLDENTKPFFSQSVSYIFEKQLAEADIIALNKVDRYSEEEIAKLKAYLQQRYPQTIIQTFSAERGDNLEALTHTWLTTDLGGDKVLDIDYELYAEGEAQLAWMNILGDIKAEQDINPREWAEKLLDNLNKHFIREKMAIAHLKVHVGFEGGYVKASMVQTGDAPTFTVENVKEGKEFRIVLNIRIEATPAILNLVVADSIGAINKELGSNWSETYNECFSPLPPKPVHRLYETV | not soluble
MGSDKIHHHHHHMRGWILYKETATQLKPEWYEIERLLAAAKADNIELEVYAPDEFDLTVTREDNKSILLNGQPVELPDFIIPRMGSGTTYFALAIIRHLERLGVYCLNPSKAIEIVKDKLFSQQLLAEKNLPTPKTMLVKFPVDIDLVERHLGFPVVIKTLSGSQGSGVFLSHKAREFDDLMQLIEATNKNANIILQEFIANSHGRDLRVFTIGGRVAGCYERRGQEDSFKANVSAGGSARPFDITPEIEWLATQTANILDLDVAGIDLLFDNGHYKICEANSSPGFEGLESCLNVDIAAQILHFIRIRLGMFNKDEKNSDPQLTHAGPALANNVTSSKAAE | not soluble
MKHLIVVPPRMNLYIKKNLAINDIFREFVANEDLWPYSIDESILDLTHTWRLFGKTPRAVAQLIQHTIRHRLGLYTTVGIGDNPLQAKIALDVYAKHDPNLIGQISYLEHHHHHH | not soluble
MGSDKIHHHHHHMGSLEQRRLEQDKRPDDVRDEYDRDEARLIHSAAFRRLQSKTQVLGLGESDFYRTRLTHSMEVAQIGRGIVQYLSKNKKFAEYHEHLPNTSLITAICLAHDIGHPPFGHGGEVALNYCMREHGGFEGNGQTLRILGKLDKYTGEHGLNPTRRMLLGILKYPVAYSELVNEKAYEQVPDKNAPYWLFEARMQKPPKCYHDCDQEIVDFIFDGFAREELAKFTQTEQPIDKDEPEKPLHKKSLYKSLDCTIMNLADNISYSLHDFEDALSLGMITQRHWREHFEGKEALFNDLAKQLVRNDLNFDLITVNLFHKESHCRKEAIGSLVNLMITNAIIEKNQSGCENPLLSLEVKLAPQIEKLRQHIFDLVCEQVIFDENVQQLEFKGQKLVIELFQTLAKDPNRFLPKPTRERLKKAGEGLEGEHKKSAQLRVICDFVSGMTDDYATKFYEKLFTPSKGSIFDRL | not soluble
MIEVAEIIAREIRRGKIVEIGVGFYLEVAKRLRESGIDILVVDINEKAINYARKQGIKGVVDDIFNPTLGIYKDAKAIYSIRPAPEMMKPLLDLARKLKIPLYIVPLTGDRTPNGMKLINYKGIPIYKWEP | soluble
CDAGRAKDKANEMMQGGNSLFGAMEGGTKEQVVLDMIDLGEHDAKTLLECEYETLGIHVSGNPLDEFKEEIKGFKNLVKSIDIEELEIGS | not soluble
MYLLEINVFEGLNKKELSMIEVAHAILEQHADVMDFSDLVNQIQNYLGKSDSEIRDQLAQFYTDLNIDGSFISLGDNRWGLRSWYPIDSIDEEVTHGLEEDEEDAPRRRKRKKVNAFITNPNDEDVIDYNDDDPEDAELTNDDEEDILYDDEEDEDEEIKAYNSDLQEIGADSDDDEEDIPQIEEDLTIIDDDDVEDEDDFDDEYSEE | not soluble
SNDAGAKTENTVDASPTPTNTPTDGDGDSAEEPVENTPAEPEPRPTPVEPEAMKTSDKAGAIAAAQYFVEVIEHSMHTSTTDLLEKYSYEKCSMCNEYKRTIAKRKDNGILVTNSQYEIKDLGPASLWGKKQLIWEVMLNLSVKEEYENFDESYTTEHSLLFYVTYLPDGWVLTEVTPASKK | not soluble
ESDSVEFNNAISYVNKIKTRFLDHPEIYRSFLEILHTYQKEQLHTKGRPFRGMSEEEVFTEVANLFRGQEDLLSEFGQFLPEAKR | soluble
MERRSTDLLVLGAGVAGVYAALAAEERGARVLLVSKDPLPAGSTPWAQGGVAFPVGEEDLEAHLRDTLVAGRGLVEEGVARSILEEAPRHLERLRAFGLPFHPEPTREGGHSRARVFHLGGDRSGLLLLEGLLKRLSTPVVPAQALSLLVSGNRVAGALLWGPGGLWEVRAGAVLLATGGFGRLFPVTTNPHGATGDGMALAWRAGAVLRDLEFVQFHPTALPNGALVSEACRGEGALLLNAHGERFMPRYDPLAELAPRDVVARAVFRERERTGGVYLDLRPIPHLEERFPTVVAQARALGLDPLRAPLPVAPAAHYAMGGVRTDAFGHTGIPGLFAAGEVASTGFHGANRLASNSLLEGLVVGWRAALRALEDLAFPPRATPLPALAAPPEAVASLREEAGEALGVVRRKETLLAFLRRAEAVPLEEVEQASRDRLEAGSLLLLMRLLARAALAREESRGAHFREDFPLEDRPRHSLFQGWRLGFLPVGVE | soluble
MASASRLPPLPALRDFIHMYRLRAKKILSQNYLMDMNITRKIAKHAKVIEKDWVIEIGPGPGGITRAILEAGASRLDVVEIDNRFIPPLQHLAEAADSRMFIHHQDALRTEIGDIWKNETARPESVDWHDSNLPAMHVIGNLPFNIASPLIIKYLRDMSYRRGVWQYGRVPLTLTFQLEVAKRLCSPIACDTRSRISIMSQYVAEPKMVFQISGSCFVPRPQVDVGVVRFVPRKTPLVNTSFEVLEKVCRQVFHYRQKYVTKGLKTLYPEELEDELSDDLLKKCRIDPTTTSIRLGIEQFADLAEGYNEQCIRYPGLFLYDYTNKLHNLEDLSKEPNALPPPVPIFAPAPTIDSADNTWSLKNFNCS | not soluble
GHHHHHHMKVGYVAIVGKPNVGKSTLLNNLLGTKVSIISPKAGTTRMRVLGVKNIPNEAQIIFLDTPGIYEPKKSDVLGHSMVEIAKQSLEEADVILFMIDATEGWRPRDEEIYQNFIKPLNKPVIVVINKIDKIGPAKNVLPLIDEIHKKHPELTEIVPISALKGANLDELVKTILKYLPEGEPLFPEDMITDLPLRLLAAEIVREKAMMLTREEVPTSIAVKINEIKPGDANPNMLVIKGEIIVDRENLKPIIIGKKGQRLKEIGKRARQELELILGRPVYLELWVKVVPDWRRRPEYVRLFGYAL | soluble
